Patent US20240075137A1 (COMPUGEN, published 2024)
Where two headings read alike, the source gives them in different places.

T1: cynomolgus PVRIG on cells (cynomolgus, UniProt A0A2K5WVV8 41-322)
T1 construct: whole, on cells; also called cPVRIG; expi cPVRIG cells
T1 sequence: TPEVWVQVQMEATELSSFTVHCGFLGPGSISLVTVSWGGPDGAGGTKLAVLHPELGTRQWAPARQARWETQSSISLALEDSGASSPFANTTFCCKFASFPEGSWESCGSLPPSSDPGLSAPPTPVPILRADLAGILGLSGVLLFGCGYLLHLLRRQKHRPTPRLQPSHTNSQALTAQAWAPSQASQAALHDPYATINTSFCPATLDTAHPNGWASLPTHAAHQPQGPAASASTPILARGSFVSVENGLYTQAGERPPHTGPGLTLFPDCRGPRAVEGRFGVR

T2: human PVRIG on cells (human, UniProt Q6DKI7 1-326)
T2 construct: whole, on cells; over-expressed on HEK cells or endogenous on Jurkat and CD8 T cells; also called hPVRIG; HEK hPVRIG cells
T2 sequence (looked up): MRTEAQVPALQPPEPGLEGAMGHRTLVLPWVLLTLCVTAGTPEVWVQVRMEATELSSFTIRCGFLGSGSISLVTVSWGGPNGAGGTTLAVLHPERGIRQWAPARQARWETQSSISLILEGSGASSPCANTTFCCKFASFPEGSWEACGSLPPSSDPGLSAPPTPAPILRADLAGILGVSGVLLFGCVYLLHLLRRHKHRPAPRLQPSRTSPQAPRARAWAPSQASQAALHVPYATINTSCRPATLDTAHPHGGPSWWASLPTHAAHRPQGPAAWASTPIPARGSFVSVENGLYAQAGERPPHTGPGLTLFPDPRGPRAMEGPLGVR

T3: PVRIG (FACS-based competition assay of FIGS. 7 and 15) (Homo sapiens, UniProt Q6DKI7)
T3 construct: made because the format of the assay is only described in U.S. Ser. No. 15/048,967; also called human PVRIG
T3 sequence (receptor, looked up): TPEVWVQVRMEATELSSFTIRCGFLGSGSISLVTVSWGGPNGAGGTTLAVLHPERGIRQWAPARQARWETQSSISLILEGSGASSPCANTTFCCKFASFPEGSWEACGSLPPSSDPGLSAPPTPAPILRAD


Experiments:
[1] = molecular target: T1, cynomolgus PVRIG on cells; assay: FACS, expi cPVRIG over expi parental cells, 3.3ug/ml
[2] = molecular target: T2, human PVRIG on cells; assay: FACS, HEK hPVRIG cells (HEK OE)
[3] = molecular target: T3, PVRIG (FACS-based competition assay of …); assay: FACS-based competition assay of PVRIG blocking; format and competitor not given
[4] = molecular target: T2, human PVRIG on cells; assay: FACS, human PBMC, CD8+ T cells, 10ug/ml
[5] = molecular target: T2, human PVRIG on cells; assay: FACS, human PBMC, CD56 int. NK cells, 10ug/ml
[6] = molecular target: T2, human PVRIG on cells; assay: FACS, human PBMC, CD8+ T cells, 10ug/ml; remark: listed apart in the source
[7] = molecular target: T2, human PVRIG on cells; assay: FACS, Jurkat cells, relative to control, 3.3ug/ml
[8] = molecular target: T3, PVRIG (FACS-based competition assay of …); assay: FACS-based competition assay of PVRIG blocking; format and competitor not given; remark: listed apart in the source
[9] = molecular target: T2, human PVRIG on cells; assay: FACS, HEK hPVRIG over HEK parental cells, 3.3ug/ml
[10] = molecular target: T1, cynomolgus PVRIG on cells; assay: FACS, expi cPVRIG over expi parental cells, 3.3ug/ml; remark: listed apart in the source
[11] = molecular target: T2, human PVRIG on cells; assay: FACS, human PBMC, CD56 int. NK cells, 10ug/ml; remark: listed apart in the source
[12] = molecular target: T1, cynomolgus PVRIG on cells; assay: FACS, cyno PBMC, NK cells, 10ug/ml
[13] = molecular target: T1, cynomolgus PVRIG on cells; assay: FACS, cyno PBMC, NK cells, 10ug/ml; remark: listed apart in the source
[14] = molecular target: T3, PVRIG (FACS-based competition assay of …); assay: FACS-based competition assay of PVRIG blocking; format and competitor not given; remark: listed apart in the source
[15] = molecular target: T1, cynomolgus PVRIG on cells; assay: FACS, cyno PBMC, CD8+ T cells, 10ug/ml
[16] = molecular target: T2, human PVRIG on cells; assay: FACS, Jurkat cells, relative to control, 3.3ug/ml; remark: listed apart in the source
[17] = molecular target: T1, cynomolgus PVRIG on cells; assay: FACS, cyno PBMC, CD8+ T cells, 10ug/ml; remark: listed apart in the source
[18] = molecular target: T2, human PVRIG on cells; assay: FACS, HEK hPVRIG cells (HEK OE); remark: listed apart in the source
[19] = molecular target: T2, human PVRIG on cells; assay: FACS, HEK hPVRIG over HEK parental cells, 3.3ug/ml; remark: listed apart in the source

Binder | gMFIr Expi cyno OE/par [1] | EC50 [2] [nM] | IC50 [3] [nM] | gMFIr Human CD8+ T cells [4] | gMFIr Human CD56 int. NK [5] | gMFIr Human CD8+ T cells [6] | gMFIr Jurkat [7] | IC50 [8] [nM] | gMFIr HEK OE/par [9] | gMFIr Expi cyno OE/par [10] | gMFIr Human CD56 int. NK [11] | gMFIr Cyno NK cells [12] | gMFIr Cyno NK cells [13] | IC50 [14] [nM] | gMFIr Cyno CD8+ T cells [15] | gMFIr Jurkat [16] | gMFIr Cyno CD8+ T cells [17] | EC50 [18] [nM] | gMFIr HEK OE/par [19]
CHA.7.545 (antibody, V domains shown) VH: QIQLVQSGPDLKKPGETVKISCKASGYTFTTYGMSWVKQAPGRGLKWMGWINTYSGVSTFPDDFKGRFAFSLETSASTAYLQINNLKNEDSATYFCARLGMGSTTGAGYFDVWGTGTTVTVSS VL: DIVLTQSPAIMSASPGEKVTMTCSASSSVSSWYLHWYQQKSGASPKLWIYGTSNLASGVPARFSGSGSGTSYSLTISSVEAEDAATYYCQQYRSDPYTFGSGTKLEIK | 0.91 | 0.76 | 96.1 | 2.82 | 2.54 | 2.82 | 6.53 | 96.1 | 44.3 | 0.91 | 2.54 |  |  |  |  |  |  |  | 
CHA.7.547 (antibody, V domains shown) VH: QIQLVQSGPDLKKPGETVKISCKASGYTFTTYGMSWVKQAPGRGLKWMGWINTYSGVSTFPDDFKGRFAFSLETSASTAYLQINNLKNEDSATYFCARLGMGSTTGAGYFDVWGTGTTVTVSS VL: ENVLTQSPAIMSASLGEKVTLSCRASSSVNYMYWYQQKSDASPKLWIYYTSNLAPGVPARFSGSGSGNSYSLTISSVEGEDAATYYCQQFTSSPWTFGGGTKLEIK | 26.6 | 14.4 | 27.9 | 1.13 | 2.21 | 1.13 | 1.02 | 27.9 | 10.9 | 26.6 | 2.21 |  |  |  |  |  |  |  | 
CHA.7.546 (antibody, V domains shown) VH: QIQLVQSGPELKKPGETVKISCKASGYTFTTYGMSWVKQAPGKGLKWMGWINTYSGVSTYADDFEGRFAFSLETSVSTAYLQINNLKNEDTATYFCARLGRGSTTGAGYLDVWGTGTTVTVSS VL: DIVLTQSPAIMSASPGEKVSMTCSASSSVSSWYLHWYQQKSGASPKLWIYGTSNLASGVPARFSGSGSGTSYSLTISSVEAEDAATYYCQQYHSDPYTFGSGTKLEIK | 0.85 | 0.61 | 92 | 2.95 | 2.75 | 2.95 | 6.42 | 92 | 43.1 | 0.85 | 2.75 |  |  |  |  |  |  |  | 
CHA.7.528 (antibody, V domains shown) VH: EVQVQQSGPELVKPGASVKISCKASGYTFTKSNMHWVKQSHGKSLEWIGYIYPYNGGTGYNQNFKSKATLTVDISSSTAYMELRSLTLEDSAVYLCAREADYYGNRGQFDYWGQGTLVTVSA VL: DIQMTQSPASLSVSVGETVTITCRASDNIFSNLAWYHQKQGKSPHLLVYGATNLADGVPSRFSGSGSGTQYSLKINSLQSEDFGDYYCQHFWGTPYTFGGGTKLEIK | 12.2 |  |  | 3.63 | 3.08 | 3.63 |  | 28.9 |  | 12.2 | 3.08 | 1.21 | 1.21 | 28.9 | 1.18 | 6.17 | 1.18 | 7.31 | 44.9
CHA.7.530 (antibody, V domains shown) VH: QVQLQQSGAELMRPGTSVKVSCKASGYAFTNHLIEWIKQRPGQGLEWIGVINPGSDSTDYNEKFKDKATLTADKSSSTAYMQLSSLTSDDSAVYFCARSLYYNSWFVYWGQGTLVTVSA VL: DIQMTQSPASLSASVGETVTITCRASENIYSYLAWYQQKRGKSPQLLVYNAKTLVEGVPSRFSGSGSGTQFSLKINSLQPEDFGSYYCQHHYGTPYTFGGGTKLEIK | 60.8 |  |  | 6.47 | 6.04 | 6.47 |  | 34.6 |  | 60.8 | 6.04 | 1.73 | 1.73 | 34.6 | 1.89 | 8.04 | 1.89 | 0.33 | 51.1
CHA.7.537 (antibody, V domains shown) VH: QVQLKESGPGLVAPSQSLSITCTVSGFSLIGHGVNWIRQPPGKGLEWLGVIWGDGNTDYNSALKSRLSISKDNSKSQVFLKMNSLQTDDTARYFCAVNSAMDYWGQGTAVTVSS VL: NIVMTQSPKSMSMSVGERVTLNCTASENVASFVSWYQQKPEQSPKLLIYGTSNRYTGVPDRFTGSGSATDFTLTISSVQAEDLGDYHCGQSYNYPFTFGSGTKLEIE | 1.55 |  |  | 3.41 | 3.9 | 3.41 |  | 39 |  | 1.55 | 3.9 | 1.18 | 1.18 | 39 | 1.19 | 5.53 | 1.19 | 2.47 | 36.6
CHA.7.543 (antibody, V domains shown) VH: QVQLKESGPGLVAPSQSLSITCTVSGFSLSGYGIKWVRQPPGKGLEWLGTIWGDGSTDYNSALKSRLSISKDNSKSQVFLKMTSLQTDDTARYYCASDSLGITFGYWGQGTLVTVSA VL: DIQMTQTTSSLSASLGDRVTISCRASQDISNYLNWYQQKPDGTVKLLIYYTSRLHSGVPSRFSGSGSGTDYSLTISNLEQEDIATYFCQQGNTLPLTFGAGTKLELK | 0.83 | 0.52 |  | 4.33 | 4.48 | 4.33 | 6.73 |  | 49.8 | 0.83 | 4.48 | 1.35 | 1.35 |  | 1.39 |  | 1.39 |  | 
